Patent US20250145729A1 (DENALI THERAPEUTICS, published 2025)
Positions count from the first letter of the chain named.

T1: human CD98hc (human, UniProt P08195 109-529)
T1 construct: also called huCD98hc; CD98 heavy chain
T1 sequence: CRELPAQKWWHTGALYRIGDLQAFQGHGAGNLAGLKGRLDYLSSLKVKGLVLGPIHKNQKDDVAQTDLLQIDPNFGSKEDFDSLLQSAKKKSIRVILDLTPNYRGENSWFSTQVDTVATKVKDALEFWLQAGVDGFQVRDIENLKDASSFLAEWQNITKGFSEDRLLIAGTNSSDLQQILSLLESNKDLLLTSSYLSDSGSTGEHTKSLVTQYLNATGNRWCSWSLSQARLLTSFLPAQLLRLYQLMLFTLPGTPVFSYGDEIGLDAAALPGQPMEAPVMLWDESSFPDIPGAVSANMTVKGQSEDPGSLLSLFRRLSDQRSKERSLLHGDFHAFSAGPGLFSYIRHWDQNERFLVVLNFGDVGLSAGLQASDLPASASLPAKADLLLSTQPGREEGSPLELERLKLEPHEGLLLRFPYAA

B1: LLB2-1 (Fc fusion)
chain: APELLGGPSVFLFPPKPKDTLMISRTPEVTCVVVDVSHEDPEVKFNWYVDGVEVHNAKTKPREEQYNSTYRVVSVLTVLHQDWLNGKEYKCKVSNKALPAPIEKTISKAKGQPREPQVYTLPPSRDELTKNQVSLTCLVKGFYPSDIAVLWNSRFSLENNYKTTPPVLDSDGSFFLYSKLTVDKSRWQQGNIFACNVLHEALHNHYTFKNLSLSPGK
notes: Fc part only
B2: LLB2-10-6 (Fc fusion)
chain: B1 chain with S156V, L198Y, S212A
notes: Fc part only
B3: LLB2-10-7 (Fc fusion)
chain: B1 chain with S156V, N204S, S212A
notes: Fc part only
B4: LLB2-10-8-d11 BV (Fc fusion)
chain: B1 chain with R154H, F155Y, S156E, I192V, L198Y
notes: Fc part only; changes read against LLB2-10-8; BV = bivalent
B5: LLB2-29 (Fc fusion)
chain: B1 chain with N152Y, S153D, R154L, S156V, N210E, L211P, S212F
notes: Fc part only
B6: LLB2-9 (Fc fusion)
chain: B1 chain with S156Q
notes: Fc part only
B7: LLB2-8 (Fc fusion)
chain: B1 chain with S156E
notes: Fc part only
B8: LLB2-10-8-d16 BV (Fc fusion)
chain: B1 chain with R154Q, F155Y, S156E, L198Y
notes: as for B4
B9: LLB2-34 (Fc fusion)
chain: B1 chain with N152T, S153Q, R154F, S156A, L198I, N210V, L211P, S212Q
notes: Fc part only
B10: LLB2-10-8-d6 BV (Fc fusion)
chain: B1 chain with S156V, I192V, L198Y, S212A
notes: Fc part only; BV = bivalent
B11: LLB2-10-8-d10 BV (Fc fusion)
chain: B1 chain with R154H, F155Y, S156E, L198Y
notes: as for B4
B12: LLB2-27 (Fc fusion)
chain: B1 chain with N152M, S153N, R154H, S156T, L198M, N210P, S212P
notes: Fc part only
B13: LLB2-10-9 (Fc fusion)
chain: B1 chain with A148V, S156V, N191E, L198Y, S212A
notes: Fc part only
B14: LLB2-10-8-d8 BV (Fc fusion)
chain: B1 chain with R154H, F155Y, S156E, N191E, I192V, L198Y
notes: as for B4
B15: LLB2-10-8 (Fc fusion)
chain: B1 chain with S156V, N191E, L198Y, S212A
notes: Fc part only
B16: LLB2-10-8-d3 BV (Fc fusion)
chain: B1 chain with S156V, N191E, I192V, L198Y, S212A
notes: Fc part only; BV = bivalent
B17: LLB2-10-8-d12 BV (Fc fusion)
chain: B1 chain with R154H, F155Y, S156E, I192V, L198Y, S212A
notes: Fc part only; BV = bivalent
B18: LLB2-10-5 (Fc fusion)
chain: B1 chain with S156V, N191E, S212A
notes: Fc part only
B19: LLB2-10-8-d7 BV (Fc fusion)
chain: B1 chain with R154H, F155Y, S156E, N191E, L198Y
notes: as for B4
B20: LLB2-10-8-d4 BV (Fc fusion)
chain: B1 chain with S156V, L198Y
notes: as for B4
B21: LLB2-10-10 (Fc fusion)
chain: B1 chain with R154Q, S156V, N191E, L198Y, S212A
notes: Fc part only
B22: LLB2-10-8-d9 BV (Fc fusion)
chain: B1 chain with R154H, F155Y, S156E, N191E, I192V, L198Y, S212A
notes: as for B4
B23: LLB2-10-8-d14 BV (Fc fusion)
chain: B1 chain with R154Q, F155Y, S156E, N191E, I192V, L198Y
notes: as for B4
B24: LLB2-10-8-d1 BV (Fc fusion)
chain: B1 chain with S156V, N191E, L198Y
notes: Fc part only; BV = bivalent
B25: LLB2-10 (Fc fusion)
chain: B1 chain with S156V
notes: Fc part only
B26: LLS2.33.3 (Fc fusion)
chain: B1 chain with L150E, N152S, R154Q, F155Y, S156E, I192M, L198W
notes: Fc part only; also called LLB2.33.3
B27: LLB2-10-8-d15 BV (Fc fusion)
chain: B1 chain with R154Q, F155Y, S156E, N191E, I192V, L198Y, S212A
notes: as for B4
B28: LLB2-32 (Fc fusion)
chain: B1 chain with N152L, S153D, R154F, L198F, N210V, S212A
notes: Fc part only
B29: LLB2-10-8-d5 BV (Fc fusion)
chain: B1 chain with S156V, I192V, L198Y
notes: as for B4
B30: LLB2-10-8-d18 BV (Fc fusion)
chain: B1 chain with R154Q, F155Y, S156E, I192V, L198Y, S212A
notes: Fc part only; BV = bivalent
B31: LLB2-10-11 (Fc fusion)
chain: B1 chain with S156L, N191E, L198Y, S212A
notes: Fc part only
B32: LLB2-10-4 (Fc fusion)
chain: B1 chain with A148V, S156V, S212A
notes: Fc part only
B33: LLB2-10-8-d13 BV (Fc fusion)
chain: B1 chain with R154Q, F155Y, S156E, N191E, L198Y
notes: as for B4
B34: LLB2-10-12 (Fc fusion)
chain: B1 chain with S156V, N191E, L198Y, S212Q
notes: Fc part only
B35: LLB2-10-1 (Fc fusion)
chain: B1 chain with S156V, S212A
notes: Fc part only
B36: LLB2-10-8-d2 BV (Fc fusion)
chain: B1 chain with S156V, N191E, I192V, L198Y
notes: as for B4
B37: LLB2-10-8-d17 BV (Fc fusion)
chain: B1 chain with R154Q, F155Y, S156E, I192V, L198Y
notes: as for B4

Target: T1, human CD98hc
Experiment: SPR (Biacore)
In short: (§1)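 Engineered Fc polypeptides, made as Fc-Fab fusions with anti-BACE1 Fabs, were assessed for Kd toward CD98hc. Measurements were taken by surface plasmon resonance with a Biacore instrument, in a bivalent format or in a monovalent knob/hole format whose CD98hc-binding site sat on the knob chain alone.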

Kd [nM] | binding result | Binder
950 | – | B1
460 | – | B2
1100 | – | B3
2400 | – | B4
– | no binding | B5
750 | – | B6
790 | – | B7
650 | – | B8
– | no binding | B9
1480 | – | B10
1400 | – | B11
– | no binding | B12
250 | – | B13
820 | – | B14
170 | – | B15
490 | – | B16
2100 | – | B17
390 | – | B18
410 | – | B19

Kd [nM] | binding result | Binder
670 | – | B20
220 | – | B21
840 | – | B22
960 | – | B23
280 | – | B24
680 | – | B25
5400 | – | B26
1000 | – | B27
– | no binding | B28
1470 | – | B29
880 | – | B30
230 | – | B31
630 | – | B32
650 | – | B33
210 | – | B34
795 | – | B35
490 | – | B36
960 | – | B37

Target: T2, cyno CD98hc (cynomolgus monkey)
T2 construct: also called cynomolgus CD98hc; cyCD98hc
Experiment: SPR (Biacore)
In short: as §1

Kd [nM] | Binder
4300 | B1
2100 | B2
6200 | B3
7200 | B4
3300 | B6
3200 | B7
2500 | B8
5300 | B10
4200 | B11
1300 | B13
3500 | B14
890 | B15
2600 | B16
5970 | B17
2200 | B18
2000 | B19

Kd [nM] | Binder
2600 | B20
1100 | B21
4200 | B22
4050 | B23
1500 | B24
2700 | B25
4600 | B27
5500 | B29
3010 | B30
1200 | B31
3000 | B32
2600 | B33
1200 | B34
4200 | B35
2300 | B36
4100 | B37
